From paper PMC6201590, “Fibronectin type III domain-containing protein 5 interacts with APP and decreases amyloid β production in Alzheimer’s disease” (Molecular Brain, 2018)

Biological target: full-length APP770 tagged with V5 (UniProt P05067-1 18-770)
Assay: cell-based or functional assay

Chain of full-length APP770 tagged with V5 (P05067 18-770): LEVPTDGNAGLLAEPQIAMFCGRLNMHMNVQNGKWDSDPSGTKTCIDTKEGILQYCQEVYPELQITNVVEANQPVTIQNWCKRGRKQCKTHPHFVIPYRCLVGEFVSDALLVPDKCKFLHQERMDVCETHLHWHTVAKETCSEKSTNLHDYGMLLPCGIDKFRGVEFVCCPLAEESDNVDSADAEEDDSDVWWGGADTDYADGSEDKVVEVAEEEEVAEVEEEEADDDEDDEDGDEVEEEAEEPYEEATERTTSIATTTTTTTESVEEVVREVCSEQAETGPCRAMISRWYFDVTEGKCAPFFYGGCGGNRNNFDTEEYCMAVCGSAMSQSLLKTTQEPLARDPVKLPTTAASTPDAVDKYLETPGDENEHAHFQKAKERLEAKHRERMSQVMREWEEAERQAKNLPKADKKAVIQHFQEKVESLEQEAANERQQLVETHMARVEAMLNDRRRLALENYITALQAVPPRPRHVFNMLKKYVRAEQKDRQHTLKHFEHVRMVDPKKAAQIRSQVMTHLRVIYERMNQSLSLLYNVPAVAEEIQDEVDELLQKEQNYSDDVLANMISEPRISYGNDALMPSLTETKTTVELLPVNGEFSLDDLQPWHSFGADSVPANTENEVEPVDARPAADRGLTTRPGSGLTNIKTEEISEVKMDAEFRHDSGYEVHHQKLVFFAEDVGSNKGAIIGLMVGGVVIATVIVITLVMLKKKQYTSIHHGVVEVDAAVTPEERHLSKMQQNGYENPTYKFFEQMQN

Aβ40 and Aβ42 secreted into the medium (ELISA) of HEK293 cells transfected with APP770-V5 and FNDC5-HA, with Aβ1–16 peptide treatment against without it: ~1.4 fold
B1: Fibronectin type III domain-containing protein 5 tagged with HA at the C-terminus (natural protein, mouse, UniProt Q8K4Z2 60-240, looked up)
chain: DSPSAPVNVTVRHLKANSAVVSWDVLEDEVVIGFAISQQKKDVRMLRFIQEVNTTTRSCALWDLEEDTEYIVHVQAISIQGQSPASEPVLFKTPREAEKMASKNKDEVTMKEMGRNQQLRTGEVLIIVVVLFMWAGVIALFCRQYDIIKDNEPNNNKEKTKSASETSTPEHQGGGLLRSKI
